This data set concerns the target VEGF (vascular endothelial growth factor) (UniProt P15692-4 27-191). Put plainly: bound/free separation: fluorescence of supernatant after capture of free aptamer on PNA beads; 10 nM aptamer, CaPNA4 beads; signal rises with 5-50 nM VEGF; detection limit 25 nM (not a Kd); TBS: 10 mM Tris-HCl pH 7.0, 100 mM NaCl; room temperature; protein and aptamer 10 min, then CaPNA beads 5 min (beads blocked with 4% skimmed milk and 4 mM biotin). The following applies: protein: commercial; chain copies: 2; label: 5'-fluorescein; predicted three-way junction with stem-loops.

VEGF (vascular endothelial growth factor), sequence (P15692 other isoform, or with tags, fused parts or gaps): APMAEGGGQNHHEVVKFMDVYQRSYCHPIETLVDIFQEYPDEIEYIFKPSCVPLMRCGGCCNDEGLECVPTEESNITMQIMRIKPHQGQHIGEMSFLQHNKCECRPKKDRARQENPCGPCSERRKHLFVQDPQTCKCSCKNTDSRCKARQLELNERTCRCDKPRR

B1: VEGF aptamer (58-mer) (structured_DNA)
DNA: CTGGCCAGGTACCAAAAGATGATCTTGGGCCCGTCCGAATGGTGGGTGTTCTGGCCAG
With B1, the binding result is recorded as “binds”.
